Where two headings read alike, the source gives them in different places.
Experiments:
recombinant CDH17-hFc [1] = target: T1, recombinant CDH17-hFc (human, UniProt Q12864 23-787); experiment: OCTET BLI
recombinant CDH17-hFc [2] = target: T1, recombinant CDH17-hFc; experiment: ELISA
recombinant CDH17-hFc [3] = target: T1, recombinant CDH17-hFc; experiment: ELISA; remark: listed apart in the source
recombinant CDH17-hFc [4] = target: T1, recombinant CDH17-hFc; experiment: OCTET BLI; remark: listed apart in the source

T1 sequence (Q12864 23-787): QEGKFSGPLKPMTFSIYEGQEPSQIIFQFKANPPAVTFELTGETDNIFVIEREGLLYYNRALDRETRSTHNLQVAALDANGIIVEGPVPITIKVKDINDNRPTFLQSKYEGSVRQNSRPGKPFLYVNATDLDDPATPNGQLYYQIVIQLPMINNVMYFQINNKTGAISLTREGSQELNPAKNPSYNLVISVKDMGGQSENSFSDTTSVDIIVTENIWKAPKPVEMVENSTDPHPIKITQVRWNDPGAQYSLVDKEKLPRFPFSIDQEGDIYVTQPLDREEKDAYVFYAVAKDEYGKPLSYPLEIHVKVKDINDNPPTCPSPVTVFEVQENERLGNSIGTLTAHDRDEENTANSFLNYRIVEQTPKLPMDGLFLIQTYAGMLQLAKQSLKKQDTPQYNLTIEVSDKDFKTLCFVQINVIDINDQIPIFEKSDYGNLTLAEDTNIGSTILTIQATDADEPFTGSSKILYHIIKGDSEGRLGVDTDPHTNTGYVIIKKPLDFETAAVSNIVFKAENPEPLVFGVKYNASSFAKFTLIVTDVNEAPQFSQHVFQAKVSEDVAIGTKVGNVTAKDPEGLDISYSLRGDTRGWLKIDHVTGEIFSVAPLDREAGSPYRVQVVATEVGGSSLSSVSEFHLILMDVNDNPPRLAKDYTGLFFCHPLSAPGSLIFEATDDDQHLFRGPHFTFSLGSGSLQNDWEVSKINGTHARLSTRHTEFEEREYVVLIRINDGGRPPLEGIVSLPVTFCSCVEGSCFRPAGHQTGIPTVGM

Kd (recombinant CDH17-hFc [1]) [nM] | EC50 (recombinant CDH17-hFc [2]) [ng/mL] | EC50 (recombinant CDH17-hFc [3]) [ng/mL] | Kd (recombinant CDH17-hFc [4]) [nM] | Binder
10.9 | 7.9 | – | – | mLic3 (antibody, V domains shown) VH: EVQLVESGGGLVKPGGSLKLSCAASGFSFSDYYMYWVRQAPEKRLEWVASISFDGTYTYYTDRVKGRFTISRDNAKNNLYLQMSSLKSEDTAMYYCARDRPAWFPYWGQGTLVTVSA VL: DVLMTQIPLSLTVSLGDQASISCRSSQSIVHSNGNTYLEWYLQRPGQSPKLLIYKVSNRFSGVPDRFSGSGSGTDFTLKISRVEAEDLGVYYCFQGSHVPLTFGAGTKLELK
– | – | 4.2 | 20.6 | m7C5 (antibody, V domains shown) VH: QVQLQQSGAELARPGASVKLSCKASGYTFTSYGLSWVKQRTGQGLEWIGEIFPRSGNSYYNEKFKGKAALTADKSSSTAYMQLSSLTSEDSAVYFCARHYYSSLYYAMDYWGQGTSVTVSS VL: DIQVTQSPASLSASVGESVSITCGTNENLYGALNWYQRKQGKSPQLLIYGATNLADGMSSRFSGSGSGRQYSLKISSLHPDDVATYYCQNVLSTPRTFGGGTKLEIK
